In publication PMC7596504, “Molecular mechanism of the MORC4 ATPase activation” (Nature Communications, 2020):
Changes are numbered by the printed parent chain. Where no end group is shown, it is not given here. Me3 = trimethyl

B1: unmodified histone H3 peptide (aa 1-12 of H3) (peptide, UniProt P68431 2-13, looked up)
peptide: ARTKQTARKSTG
notes: N-terminal tail of histone H3, aa 1-12; also called H3K4; unmodified H3 peptide
B2: MORC4 ATPaseCW cassette (aa 29-486) (domain or fragment, human, UniProt Q8TE76 29-486, looked up)
chain: GIRLSTMSPRYLQSNSSSHTRPFSAIAELLDNAVDPDVSARTVFIDVEEVKNKSCLTFTDDGCGMTPHKLHRMLSFGFTDKVIKKSQCPIGVFGNGFKSGSMRLGKDALVFTKNGGTLTVGLLSQTYLECVQAQAVIVPIVPFNQQNKKMIITEDSLPSLEAILNYSIFNRENDLLAQFDAIPGKKGTRVLIWNIRRNKNGKSELDFDTDQYDILVSDFDTEEKMTGGVTSELPETEYSLRAFCGILYMKPRMKIFLRQKKVTTQMIAKSLANVEYDTYKPTFTNKQVRITFGFSCKNSNQFGIMMYHNNRLIKSFEKVGCQVKPTRGEGVGVIGVIECNFLKPAYNKQDFEYTKEYRLTINALAQKLNAYWKEKTSQDNFETSTVARPIPKVPDQTWVQCDECLKWRKLPGKIDPSMLPARWFCYYNSHPKYRRCSVPEEQELTDEDLCLSKAKKQE
notes: ATPase domain and CW domain of human MORC4, aa 29-486, cloned into pDEST15; Homodimer in the crystal with AMPPNP and Mg2+; source: E. coli Rosetta2 (DE3) pLysS or BL21 (DE3) RIL, purified (glutathione agarose, GST tag cleaved, SEC)
B3: histone H3K4me3 peptide (aa 1-12 of H3) (peptide, UniProt P68431 2-13, looked up)
peptide: ARTK(Me3)QTARKSTG
notes: N-terminal tail of histone H3, aa 1-12

Columns and labels:
[1] = target: T1, MORC4 CW domain (aa 417-475) (human, UniProt Q8TE76 417-475); experiment: other fluorescence titration; tryptophan fluorescence, 25 °C; 0.5-1 µM ATPaseCW or CW in 20 mM Tris pH 6.8, 100 mM NaCl, 2 mM DTT, increasing histone peptide; conditions: both partners purified
T1 construct: CW-type zinc finger domain of human MORC4, aa 417-475, cloned into pGEX 6p-1; Uniformly 15N-labelled in the NMR experiments; unlabelled protein was further purified by size exclusion chromatography; also called WT MORC4 CW domain; source: E. coli Rosetta2 (DE3) pLysS or BL21 (DE3) RIL, purified (glutathione agarose, GST tag cleaved)
T1 sequence (looked up): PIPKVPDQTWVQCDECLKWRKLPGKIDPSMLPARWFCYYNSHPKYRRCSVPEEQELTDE

[2] = target: the molecule itself; experiment: crystal structure; ATPaseCW (aa 29-486) with AMPPNP and Mg2+, 2.9 Å; crystallised after incubation with H3K4me3 peptide and 2 mM AMPPNP
[3] = target: B2; experiment: other fluorescence titration; tryptophan fluorescence, 25 °C; 0.5-1 µM ATPaseCW or CW in 20 mM Tris pH 6.8, 100 mM NaCl, 2 mM DTT, increasing histone peptide; conditions: both partners purified
[4] = target: T2, MORC4 CW domain K460A/R462A/R463A (human, UniProt Q8TE76 417-475, K460A | R462A | R463A); experiment: NMR titration; 1H,15N HSQC of 15N-labelled CWKRR titrated with H3K4me3 peptide; 20 mM Tris-HCl pH 6.8, 150 mM NaCl, 2 mM DTT; conditions: both partners purified
T2 construct: CW-type zinc finger domain of human MORC4, aa 417-475, triple mutant; Uniformly 15N-labelled in the NMR experiment; also called CWKRR; MORC4 CWKRR; source: E. coli, grown and purified as wild-type protein (glutathione agarose, GST tag cleaved)
T2 sequence (looked up): T1 sequence (looked up) with K44A, R46A, R47A

[5] = target: B2; experiment: other fluorescence titration; tryptophan fluorescence, 25 °C; ATPaseCW in the presence of 601 DNA (ATPaseCW:601 DNA complex), increasing histone peptide; conditions: both partners purified

| Binder | Kd [1] | binding result [2] | Kd [3] | binding result [4] | Kd [5] |
| --- | --- | --- | --- | --- | --- |
| B1 | 2.7 µM |  |  |  |  |
| B2 |  | binds |  |  |  |
| B3 | 0.112 µM |  | 0.18 µM | binds | 0.04 µM |
